Source: the Immune Epitope Database (IEDB)
Values belong to the sequence of their own block, whether it stands above or below them.

Columns and labels:
HLA-A*02:01 [1] = test: IEDB peptide-MHC binding, purified MHC/direct/fluorescence; filed as Kd, often an IC50 or EC50 that approximates it; ≥ and ≤ were set here for values at or beyond the usual limits of such assays; details: source organism: Homo sapiens
HLA-A*69:01 = test: as above
HLA-B*07:02 = test: as above
HLA-B*15:01 = test: as above
HLA-B*40:01 = test: as above
HLA-A*02:50 = test: IEDB peptide-MHC binding, purified MHC/competitive/fluorescence; filed as Kd, often an IC50 or EC50 that approximates it; ≥ and ≤ were set here for values at or beyond the usual limits of such assays; details: source organism: Homo sapiens
HLA-A*24:03 = test: as above; details: source organism: Homo sapiens
HLA-A*25:01 = test: as above; details: source organism: Homo sapiens
HLA-A*29:02 = test: as above; details: source organism: Homo sapiens
HLA-A*30:01 [2] = test: as above; details: source organism: Homo sapiens
HLA-B*44:02 = test: as above; details: source organism: Homo sapiens
HLA-B*51:01 = test: as above
HLA-B*57:01 [3] = test: as above; details: source organism: Homo sapiens
HLA-B*58:01 [4] = test: IEDB peptide-MHC binding, purified MHC/competitive/fluorescence; ≥ and ≤ were set here for values at or beyond the usual limits of such assays; details: source organism: Homo sapiens
HLA-B*15:02 = test: IEDB peptide-MHC binding, purified MHC/competitive/fluorescence; filed as Kd, often an IC50 or EC50 that approximates it; ≥ and ≤ were set here for values at or beyond the usual limits of such assays; details: source organism: Toxoplasma gondii RH
HLA-A*01:01 = test: IEDB peptide-MHC binding, purified MHC/direct/fluorescence; filed as Kd, often an IC50 or EC50 that approximates it; ≥ and ≤ were set here for values at or beyond the usual limits of such assays; details: source organism: Marburg virus - Musoke, Kenya, 1980
HLA-A*03:01 = test: as above; details: source organism: Marburg virus - Musoke, Kenya, 1980
HLA-A*26:01 = test: as above; details: source organism: Ravn virus - Ravn, Kenya, 1987
HLA-A*30:01 [5] = test: as above; details: source organism: Ravn virus - Ravn, Kenya, 1987
HLA-A*31:01 = test: as above; details: source organism: Marburg virus - Musoke, Kenya, 1980
HLA-B*15:17 = test: as above; details: source organism: Marburg virus - Musoke, Kenya, 1980
HLA-B*18:01 = test: as above; details: source organism: Marburg virus - Musoke, Kenya, 1980
HLA-B*27:05 = test: as above; details: source organism: Marburg virus - Musoke, Kenya, 1980
HLA-B*38:01 = test: as above; details: source organism: Ravn virus - Ravn, Kenya, 1987
HLA-B*46:01 = test: as above; details: source organism: Marburg virus - Musoke, Kenya, 1980
HLA-B*48:01 = test: as above; details: source organism: Marburg virus - Musoke, Kenya, 1980
HLA-B*57:01 [6] = test: as above; details: source organism: Marburg virus - Musoke, Kenya, 1980
HLA-B*58:01 [7] = test: as above; details: source organism: Marburg virus - Musoke, Kenya, 1980
HLA-A*02:01 [8] = test: IEDB peptide-MHC binding, purified MHC/competitive/fluorescence; filed as Kd, often an IC50 or EC50 that approximates it; ≥ and ≤ were set here for values at or beyond the usual limits of such assays; details: source organism: Orthomarburgvirus marburgense
HLA-A*11:01 = test: as above; details: source organism: Orthomarburgvirus marburgense
HLA-B*39:01 = test: as above; details: source organism: Orthomarburgvirus marburgense
HLA-B*08:01 = test: IEDB peptide-MHC binding, purified MHC/direct/fluorescence; filed as Kd, often an IC50 or EC50 that approximates it; ≥ and ≤ were set here for values at or beyond the usual limits of such assays; details: source organism: Burkholderia mallei ATCC 23344
HLA-B*08:02 = test: as above; details: source organism: Burkholderia mallei ATCC 23344
HLA-C*05:01 = test: as above; details: source organism: Burkholderia mallei SAVP1
HLA-C*06:02 = test: as above; details: source organism: Burkholderia mallei SAVP1
HLA-C*07:02 = test: as above; details: source organism: Burkholderia mallei SAVP1
HLA-C*14:02 = test: as above; details: source organism: Burkholderia mallei SAVP1
HLA-C*15:02 = test: as above; details: source organism: Burkholderia mallei SAVP1
HLA-B*15:42 = test: IEDB peptide-MHC binding, purified MHC/competitive/fluorescence; filed as Kd, often an IC50 or EC50 that approximates it; ≥ and ≤ were set here for values at or beyond the usual limits of such assays; details: source organism: Burkholderia mallei SAVP1
HLA-B*27:20 = test: as above; details: source organism: Burkholderia mallei SAVP1
HLA-B*45:06 = test: as above; details: source organism: Burkholderia mallei SAVP1
HLA-B*83:01 = test: as above; details: source organism: Burkholderia mallei SAVP1
HLA-B*53:01 = test: IEDB peptide-MHC binding, purified MHC/competitive/fluorescence; ≥ and ≤ were set here for values at or beyond the usual limits of such assays; details: source organism: Ornithorhynchus anatinus
[9] = source organism: Marburg virus - Musoke, Kenya, 1980

Sequence: SLSSPDSAY
Kd (HLA-B*15:02): 25.1 nM

Sequence: VPAWLPLGI
Kd (HLA-A*01:01): ≥ 20 µM | Kd (HLA-A*03:01): ≥ 20 µM | Kd (HLA-A*26:01): ≥ 20 µM | Kd (HLA-A*30:01 [5]): ≥ 20 µM | Kd (HLA-A*31:01): ≥ 20 µM | Kd (HLA-A*69:01; [9]): 11.1 nM | Kd (HLA-B*07:02; [9]): 732 nM | Kd (HLA-B*15:01; [9]): ≥ 20 µM | Kd (HLA-B*15:17): 288 nM | Kd (HLA-B*18:01): 5.81 µM | Kd (HLA-B*27:05): ≥ 20 µM | Kd (HLA-B*38:01): ≥ 20 µM | Kd (HLA-B*40:01; [9]): ≥ 20 µM | Kd (HLA-B*46:01): ≥ 20 µM | Kd (HLA-B*48:01): ≥ 20 µM | Kd (HLA-B*57:01 [6]): ≥ 20 µM | Kd (HLA-B*58:01 [7]): ≥ 20 µM | Kd (HLA-A*02:01 [8]): 1050 nM | Kd (HLA-A*11:01): ≥ 20 µM | Kd (HLA-B*39:01): 2680 nM | Kd (HLA-B*51:01; source organism: Orthomarburgvirus marburgense): 116 nM

Sequence: YARRYFYPL
Kd (HLA-B*08:01): 2 nM | Kd (HLA-B*08:02): 43 nM | Kd (HLA-C*05:01): ≥ 20 µM | Kd (HLA-C*06:02): ≥ 20 µM | Kd (HLA-C*07:02): 362 nM | Kd (HLA-C*14:02): 696 nM | Kd (HLA-C*15:02): 11 nM | Kd (HLA-B*15:42): ≥ 5 µM | Kd (HLA-B*27:20): 24.4 nM | Kd (HLA-B*45:06): ≥ 5 µM | Kd (HLA-B*83:01): ≥ 5 µM

Sequence: YSLEYFQF
IC50 (HLA-B*53:01): 4.79 µM

Now from value to sequence:

Kd (HLA-A*02:01 [1]): 5.7 µM | Kd (HLA-A*69:01; source organism: Homo sapiens): 7.17 nM | Kd (HLA-B*07:02; source organism: Homo sapiens): 4710 nM | Kd (HLA-B*15:01; source organism: Homo sapiens): 4.76 µM | Kd (HLA-B*40:01; source organism: Homo sapiens): 13.2 µM | Kd (HLA-A*02:50): ≥ 20 µM | Kd (HLA-A*24:03): ≥ 20 µM | Kd (HLA-A*25:01): 10.8 nM | Kd (HLA-A*29:02): ≥ 20 µM | Kd (HLA-A*30:01 [2]): ≥ 20 µM | Kd (HLA-B*44:02): ≥ 20 µM | Kd (HLA-B*51:01; source organism: Homo sapiens): ≥ 20000 nM | Kd (HLA-B*57:01 [3]): ≥ 20 µM
Sequence: EVIPYTPAM

IC50 (HLA-B*58:01 [4]): 136 nM
Sequence: KSLTTTMQF
